Laboratory results taken from patent US20220332804A1 (CSL INNOVATION, published 2022).

Tests used:
Experiment in all cases: SPR, antibody captured, C2 as analyte;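 also: biacore at 37 °C, anti-C2 mAbs held by immobilised goat anti-human IgG, C2 alanine or serine mutants injected, double-referenced sensorgrams fitted to a 1:1 kinetic or steady-state model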
human C2 S456A = target: T1, human C2 S456A (human, UniProt P06681 21-752)
T1 sequence: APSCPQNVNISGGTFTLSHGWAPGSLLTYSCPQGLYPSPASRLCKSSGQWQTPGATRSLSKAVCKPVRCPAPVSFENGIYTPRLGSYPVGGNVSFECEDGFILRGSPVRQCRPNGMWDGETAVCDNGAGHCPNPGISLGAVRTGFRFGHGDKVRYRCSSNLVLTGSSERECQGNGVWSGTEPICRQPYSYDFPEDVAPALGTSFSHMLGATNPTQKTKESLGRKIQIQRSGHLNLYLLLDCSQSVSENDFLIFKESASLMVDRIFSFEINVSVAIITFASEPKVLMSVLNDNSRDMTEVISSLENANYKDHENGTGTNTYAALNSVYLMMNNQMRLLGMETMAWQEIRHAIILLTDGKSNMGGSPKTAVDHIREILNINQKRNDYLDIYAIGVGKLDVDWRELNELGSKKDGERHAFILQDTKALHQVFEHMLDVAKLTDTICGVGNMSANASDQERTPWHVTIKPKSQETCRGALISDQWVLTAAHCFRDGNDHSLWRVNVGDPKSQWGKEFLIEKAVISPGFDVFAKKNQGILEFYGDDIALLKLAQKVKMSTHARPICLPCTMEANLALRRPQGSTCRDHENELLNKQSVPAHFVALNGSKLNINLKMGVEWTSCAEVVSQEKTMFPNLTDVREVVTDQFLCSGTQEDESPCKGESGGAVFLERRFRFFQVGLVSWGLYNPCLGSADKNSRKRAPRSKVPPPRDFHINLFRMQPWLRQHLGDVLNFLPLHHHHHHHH

human C2 D441A = target: T2, human C2 D441A (human, UniProt P06681 21-752)
T2 sequence: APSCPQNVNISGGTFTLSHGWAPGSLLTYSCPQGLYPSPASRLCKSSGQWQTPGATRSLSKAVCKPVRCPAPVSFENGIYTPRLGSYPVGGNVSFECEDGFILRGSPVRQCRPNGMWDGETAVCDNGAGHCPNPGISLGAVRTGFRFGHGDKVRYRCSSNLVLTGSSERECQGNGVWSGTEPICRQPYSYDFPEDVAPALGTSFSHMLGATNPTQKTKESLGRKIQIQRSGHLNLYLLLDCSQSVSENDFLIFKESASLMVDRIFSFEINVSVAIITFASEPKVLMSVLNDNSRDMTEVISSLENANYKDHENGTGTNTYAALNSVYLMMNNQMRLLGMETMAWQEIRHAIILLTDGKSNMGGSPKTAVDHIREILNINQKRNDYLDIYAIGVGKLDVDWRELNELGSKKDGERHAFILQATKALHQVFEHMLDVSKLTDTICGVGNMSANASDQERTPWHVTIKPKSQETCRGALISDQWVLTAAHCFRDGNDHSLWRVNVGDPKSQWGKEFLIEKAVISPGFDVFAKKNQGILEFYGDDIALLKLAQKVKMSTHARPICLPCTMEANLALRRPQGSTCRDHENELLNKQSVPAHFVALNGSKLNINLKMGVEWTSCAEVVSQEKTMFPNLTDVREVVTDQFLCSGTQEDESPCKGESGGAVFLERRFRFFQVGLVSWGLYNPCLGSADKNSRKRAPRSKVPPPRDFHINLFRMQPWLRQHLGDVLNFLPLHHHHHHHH

human C2 E433A = target: T3, human C2 E433A (human, UniProt P06681 21-752)
T3 sequence: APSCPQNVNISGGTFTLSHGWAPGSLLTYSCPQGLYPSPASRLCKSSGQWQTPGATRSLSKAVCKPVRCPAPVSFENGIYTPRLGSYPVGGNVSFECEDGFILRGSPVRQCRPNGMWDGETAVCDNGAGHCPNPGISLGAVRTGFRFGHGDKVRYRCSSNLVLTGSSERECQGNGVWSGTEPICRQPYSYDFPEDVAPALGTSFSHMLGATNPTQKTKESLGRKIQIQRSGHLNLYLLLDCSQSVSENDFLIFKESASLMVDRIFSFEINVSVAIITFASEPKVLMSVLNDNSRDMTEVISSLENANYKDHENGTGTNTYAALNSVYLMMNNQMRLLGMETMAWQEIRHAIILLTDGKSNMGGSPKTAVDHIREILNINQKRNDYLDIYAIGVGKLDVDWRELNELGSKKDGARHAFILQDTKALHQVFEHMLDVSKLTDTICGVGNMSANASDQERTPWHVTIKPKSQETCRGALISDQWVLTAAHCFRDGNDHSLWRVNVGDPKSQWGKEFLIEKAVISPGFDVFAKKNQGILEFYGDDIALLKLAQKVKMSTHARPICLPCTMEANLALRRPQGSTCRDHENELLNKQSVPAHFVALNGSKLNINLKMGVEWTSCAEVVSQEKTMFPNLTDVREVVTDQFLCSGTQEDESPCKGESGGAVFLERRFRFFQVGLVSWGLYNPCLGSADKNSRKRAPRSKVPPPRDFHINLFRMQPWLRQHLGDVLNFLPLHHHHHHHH

human C2 E324A = target: T4, human C2 E324A (human, UniProt P06681 21-752)
T4 sequence: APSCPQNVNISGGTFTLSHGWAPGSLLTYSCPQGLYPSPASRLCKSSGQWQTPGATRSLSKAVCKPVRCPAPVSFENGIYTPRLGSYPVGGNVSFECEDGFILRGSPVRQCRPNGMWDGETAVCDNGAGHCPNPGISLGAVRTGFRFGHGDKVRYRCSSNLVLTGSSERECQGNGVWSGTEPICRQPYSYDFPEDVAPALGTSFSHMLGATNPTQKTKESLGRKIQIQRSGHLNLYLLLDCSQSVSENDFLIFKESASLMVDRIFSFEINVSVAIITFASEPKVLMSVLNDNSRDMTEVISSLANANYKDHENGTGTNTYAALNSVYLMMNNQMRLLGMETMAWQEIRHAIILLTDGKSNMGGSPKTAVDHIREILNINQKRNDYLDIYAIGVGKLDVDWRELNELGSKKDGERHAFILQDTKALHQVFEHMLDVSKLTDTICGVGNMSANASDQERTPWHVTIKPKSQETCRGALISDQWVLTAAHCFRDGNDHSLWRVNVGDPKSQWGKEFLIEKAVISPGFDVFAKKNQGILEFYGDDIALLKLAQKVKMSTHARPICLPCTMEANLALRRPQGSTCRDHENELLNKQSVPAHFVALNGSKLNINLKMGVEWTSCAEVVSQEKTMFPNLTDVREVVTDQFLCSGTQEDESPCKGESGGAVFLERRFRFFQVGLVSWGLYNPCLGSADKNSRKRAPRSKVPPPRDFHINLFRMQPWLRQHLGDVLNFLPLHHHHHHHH

B1: RF16-242 (antibody, human IgG4 S228P, lambda, V domains shown)
VH: EVQLLQSGAEVKKPGESLKISCKGSGYSFTSYWIGWVRQMPGKGLEWMGIIYPGDSDTRYSPSFQGQVTISADKSISTAYLQWSSLKASDTAMYYCARRGHYGDYFDYWGQGTLVTVSS
VL: SYELTQPPSVSVSPGQTARITCSGDALPKKYAYWYHQKSGQAPVLVIYEDRRRPSEIPERFSGSSSGTMATLTITGAQVEDEGVYFCYSRDRAGNQRVFGGGTQLTVLG
notes: pH-dependent anti-C2 antibody from a phage display library
Question: Which Kd (human C2 S456A) does the source give for B1 here?
Answer: The Kd was 59.8 nM.

Question: And the Kd (human C2 D441A)?
Answer: The Kd was 114 nM.

Question: What about the Kd (human C2 E433A) of the same binder?
Answer: The Kd was 3 nM.

Question: And the Kd (human C2 E324A)?
Answer: Its Kd is 10.7 nM.
